{"source": "IntAct's records for PubMed 25710501", "parents": {"B1": {"name": "Granule-bound starch synthase 1, chloroplastic/amyloplastic (Arabidopsis thaliana (Mouse-ear cress)), Q9MAQ0 (parent)", "chain": "MATVTASSNFVSRTSLFNNHGASSCSDVAQITLKGQSLTHCGLRSFNMVDNLQRRSQAKPVSAKSSKRSSKVKTAGKIVCEKGMSVIFIGAEVGPWSKTGGLGDVLGGLPPALAARGHRVMTICPRYDQYKDAWDTCVVVQIKVGDKVENVRFFHCYKRGVDRVFVDHPIFLAKVVGKTGSKIYGPITGVDYNDNQLRFSLLCQAALEAPQVLNLNSSKYFSGPYGEDVVFVANDWHTALLPCYLKSMYQSRGVYMNAKVVFCIHNIAYQGRFAFDDYSLLNLPISFKSSFDFMDGYEKPVKGRKINWMKAAILEAHRVLTVSPYYAQELISGVDRGVELHKYLRMKTVSGIINGMDVQEWNPSTDKYIDIKYDITTVTDAKPLIKEALQAAVGLPVDRDVPVIGFIGRLEEQKGSDILVEAISKFMGLNVQMVILGTGKKKMEAQILELEEKFPGKAVGVAKFNVPLAHMITAGADFIIVPSRFEPCGLIQLHAMRYGTVPIVASTGGLVDTVKDGYTGFHIGRFNVKCEVVDPDDVIATAKAVTRAVAVYGTSAMQEMVKNCMDQDFSWKGPARLWEKVLLSLNVAGSEAGTEGEEIAPLAKENVATP", "partner": "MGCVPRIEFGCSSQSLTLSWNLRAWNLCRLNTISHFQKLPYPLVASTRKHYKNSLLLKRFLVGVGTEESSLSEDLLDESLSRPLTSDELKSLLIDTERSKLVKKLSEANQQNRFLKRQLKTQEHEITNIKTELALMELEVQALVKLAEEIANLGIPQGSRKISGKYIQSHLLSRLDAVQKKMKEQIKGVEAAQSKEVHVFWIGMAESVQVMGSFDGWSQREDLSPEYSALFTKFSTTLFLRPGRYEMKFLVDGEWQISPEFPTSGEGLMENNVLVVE"}}, "data": [{"variants_of": "B1", "conditions": "with ptst_arath PTST", "values": [{"variant": "K441E", "effect of a mutation on the interaction": "decreasing interaction strength"}, {"variant": "K441E;E452K", "effect of a mutation on the interaction": "disrupting interaction strength"}, {"variant": "E449K", "effect of a mutation on the interaction": "decreasing interaction strength"}, {"variant": "E452K", "effect of a mutation on the interaction": "disrupting interaction strength"}]}, {"variants_of": "B1", "conditions": "with ptst_arath PTST", "remark": "another data set of the same source", "values": [{"variant": "K441E;E452K", "effect of a mutation on the interaction": "decreasing interaction strength"}, {"variant": "E452K", "effect of a mutation on the interaction": "decreasing interaction strength"}]}]}
